Read-outs that look alike come from different tables or passages of the source. Blank lines part the entries; values can stand above or below the substance they belong to.
How the values were obtained:
[1] = target: BTN2A1 peptide on (human); assay: SPR, equilibrium affinity; biotinylated TCR captured on a streptavidin chip, BTN2A1 IgV as analyte; soluble, other
[2] = target: BTN2A1 peptide on (human); assay: SPR, equilibrium affinity and Scatchard analysis; representative experiment of Figure 3B; soluble, other
[3] = target: MOP Vγ9Vδ2 TCR (soluble, biotinylated) (human); assay: SPR; BIAcore3000; biotinylated TCRs (2000-3000 RU) captured on streptavidin-coated CM5 chips; BTN IgV domain injected as analyte, 1-200 μM; HBS-EP buffer; equilibrium affinity measurements
[4] = target: Vγ9Vδ1 TCR (soluble, biotinylated) (human); assay: as above
[5] = target: MOP Vγ9Vδ2 TCR (soluble, biotinylated) (human); assay: as above; remark: listed apart in the source
[6] = target: Vγ9Vδ1 TCR (soluble, biotinylated) (human); assay: as above; remark: listed apart in the source
[7] = target: Vγ9Vδ2 TCR (soluble, biotinylated; clone not stated for this experiment) (human); assay: as above
[8] = target: Vγ9Vδ2 TCR (soluble, biotinylated; clone not stated for this experiment) (human); assay: as above; remark: listed apart in the source
[9] = target: Vγ9Vδ2 TCR (soluble, biotinylated; clone not stated for this experiment); assay: SPR; conditions: parent: est. 1.0; read off a plot

Kd [1]: 49.9 µM | Kd [2]: 48.4 µM
Substance: Vγ9Vδ2 MOP TCR

Kd [7]: 100 µM
Substance: BTN2A1 IgV K79A (from UniProt Q7KYR7 27-142) (domain or fragment)

Continued, substance first:

Substance: BTN2A1 IgV (from UniProt Q7KYR7 27-142) (domain or fragment)
Kd [3]: 49.9 µM | Kd [4]: 46.6 µM | Kd [5]: 48.4 µM | Kd [6]: 47.9 µM

Substance: BTN2A1 IgV S72A (from UniProt Q7KYR7 27-142) (domain or fragment)
Kd [7]: 11 to 15 µM | Kd [8]: 10 to 15 µM

Substance: BTN2A1 IgV (from UniProt Q7KYR7) Y133A
ratio to parent [9]: 0.8
